Results published in patent publication US6013258A, “Immunogenic peptides from the HPV E7 protein” (priority 1997, dated 2000).

Target: T1, recombinant HLA-A2 (Homo sapiens, UniProt P04439, D140Y/D185E/D98H/E176V/E277Q/G131W/G231S/I119V/I121R/I166T/I218V/N151K/N90K/P208A/P217A/Q86G/Q94H/R138H/R169H)
T1 construct: made in house; host or cells: E. coli
Assay type: binding
Conditions: peptide-HLA-A2 complex, monitored by circular dichroism

A2.2: peptide derived from HPV strain 16 E7 protein, SEQ ID NO:17 (YMLDLQPET) [Peptide A2.2]
Tm (temperature at which 50% of the refolded complexes are melted): 52.5 degrees Celsius
